The text below walks through data of PMC7026407, “Multiple Growth Factor Targeting by Engineered Insulin-like Growth Factor Binding Protein-3 Augments EGF Receptor Tyrosine Kinase Inhibitor Efficacy” (Scientific Reports, 2020).

The target in experiment [1] is T1, neuregulin-1 (UniProt Q02297 20-241). Briefly: cell-based or functional assay.
The target of experiment [2] is T2, Basic FGF (UniProt P09038 143-288). The experiment can be described thus: cell-based or functional assay.
For experiment [3], the target named is T3, insulin-like growth factor-1 (UniProt P05019 49-118). Briefly: cell-based or functional assay.
T3 sequence (P05019 49-118): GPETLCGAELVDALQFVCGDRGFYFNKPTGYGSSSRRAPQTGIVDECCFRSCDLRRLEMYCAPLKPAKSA
For experiment [4], the target named is T4, PDGF BB (UniProt P01127 82-190). Briefly: cell-based or functional assay.
T4 sequence (P01127 82-190): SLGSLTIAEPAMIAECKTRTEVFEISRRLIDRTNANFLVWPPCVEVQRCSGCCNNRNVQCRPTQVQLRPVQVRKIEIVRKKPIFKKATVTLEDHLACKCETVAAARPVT
The target in experiment [5] is T5, hepatocyte growth factor (UniProt P14210 32-728). Briefly: cell-based or functional assay.
T5 sequence (P14210 32-728): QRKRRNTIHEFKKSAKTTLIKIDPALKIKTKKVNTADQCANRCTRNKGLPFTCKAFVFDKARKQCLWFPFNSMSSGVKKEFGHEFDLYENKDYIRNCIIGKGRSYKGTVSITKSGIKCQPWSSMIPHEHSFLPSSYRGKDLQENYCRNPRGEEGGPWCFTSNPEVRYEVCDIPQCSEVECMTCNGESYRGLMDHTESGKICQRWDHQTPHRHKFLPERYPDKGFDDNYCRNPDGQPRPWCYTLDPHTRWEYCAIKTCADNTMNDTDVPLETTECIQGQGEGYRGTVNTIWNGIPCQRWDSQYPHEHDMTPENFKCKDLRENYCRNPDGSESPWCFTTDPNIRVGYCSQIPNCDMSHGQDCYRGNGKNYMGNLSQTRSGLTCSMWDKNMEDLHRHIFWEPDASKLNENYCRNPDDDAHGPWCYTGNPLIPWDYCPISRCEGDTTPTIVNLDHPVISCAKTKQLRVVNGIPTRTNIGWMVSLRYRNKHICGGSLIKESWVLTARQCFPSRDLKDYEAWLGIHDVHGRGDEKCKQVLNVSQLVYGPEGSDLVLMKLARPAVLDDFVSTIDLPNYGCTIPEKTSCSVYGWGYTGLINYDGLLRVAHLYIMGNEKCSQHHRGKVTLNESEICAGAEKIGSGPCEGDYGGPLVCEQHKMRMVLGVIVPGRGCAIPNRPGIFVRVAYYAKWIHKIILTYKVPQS
The target in experiment [6] is T1, neuregulin-1. Briefly: SPR; growth factor immobilised on a CM4 chip instead of the binding protein (asterisk in Table 1), binding protein or Fc fusion as analyte; HBS-P, 25 °C; regeneration with 4 M MgCl2 then 5 M guanidinium chloride; 1:1 binding analysis. As to conditions: both partners purified. On the technique in general: Surface plasmon resonance follows binding to a sensor surface in real time, without labels.

Experiment [7] concerns the target T2, Basic FGF. The experiment is described as above. To be noted: both partners purified.
Experiment [8] deals with T4, PDGF BB. Described as above. To be noted: both partners purified.
Experiment [9] concerns the target T5, hepatocyte growth factor. The description is as above. To be noted: both partners purified.
For experiment [10], the target named is VEGF-B (UniProt P49765 22-207). The experiment is described as above. As to conditions: both partners purified.
Experiment [11] deals with T3, insulin-like growth factor-1. Briefly: SPR; IGF binding protein or Fc fusion amine-coupled to a CM4 chip, growth factor as analyte; Biacore T100 or T200, HBS-P, BSA (0.2 mg/ml) or NaCl (0.65 M final) to reduce non-specific binding, 25 °C; 1:1 binding analysis. As to conditions: both partners purified.
For experiment [12], the target named is T6, insulin-like growth factor-2 (UniProt P01344 25-91).
T6 construct: insulin-like growth factor 2, commercial growth factor; also called IGF2; IGF-2
T6 sequence (P01344 25-91): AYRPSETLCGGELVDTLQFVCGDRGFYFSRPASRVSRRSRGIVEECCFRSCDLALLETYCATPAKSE
The experiment is described as above. To be noted: both partners purified.

Experiment [13] addresses T7, 56662 (UniProt P17936-1 28-291).
T7 construct: the secretory signal peptide was derived from IGFBP-2; Fc portion of IgG1 added to the C terminus of IGFBP-3; called an Fc dimer; Probably the mature IGFBP-3 after removal of the IGFBP-2 signal peptide; also called IGFBP-3-Fc; BP3-Fc (unmodified IGFBP-3 Fc construct); source: 293 T cells, transfected; conditioned medium purified by proteinA Sepharose; not shown: Fc (IgG1), C-terminal, kept
The experiment can be described thus: SPR; growth factor immobilised on a CM4 chip instead of the binding protein (asterisk in Table 1), binding protein or Fc fusion as analyte; HBS-P, 25 °C; regeneration with 4 M MgCl2 then 5 M guanidinium chloride; 1:1 binding analysis. As to conditions: both partners purified.

Experiment [14] has as its target T8, Chimera A.
T8 construct: signal peptide derived from IGFBP-2; VEGF receptor 1 domain 2, first part of VEGF-trap; VEGF receptor 2 domain 3, second part of VEGF-trap; VEGF-trap inserted between the IGFBP-3 and the Fc domain; also called chA; BP3-VEGF-trap-Fc; source: 293 T cells, transfected; conditioned medium purified by proteinA Sepharose; not shown: Fc (IgG1), C-terminal, kept
Described as above. As to conditions: both partners purified.
Target sequence in this assay (Q02297 20-241, stated change not applied): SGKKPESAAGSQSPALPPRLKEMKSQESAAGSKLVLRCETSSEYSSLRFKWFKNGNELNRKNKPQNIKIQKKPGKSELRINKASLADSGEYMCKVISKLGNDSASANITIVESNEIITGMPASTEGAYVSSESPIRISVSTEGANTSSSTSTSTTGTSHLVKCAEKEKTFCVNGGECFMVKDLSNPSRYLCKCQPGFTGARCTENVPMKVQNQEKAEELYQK

The target of experiment [15] is T9, IGFBP-3 (UniProt P17936 28-291).
T9 construct: source: bought (commercially available, carrier-free)
The experiment can be described thus: SPR; IGF binding protein or Fc fusion amine-coupled to a CM4 chip, growth factor as analyte; Biacore T100 or T200, HBS-P, BSA (0.2 mg/ml) or NaCl (0.65 M final) to reduce non-specific binding, 25 °C; 1:1 binding analysis. As to conditions: both partners purified.

The target in experiment [16] is T10, IGFBP-7 (UniProt Q16270 27-282).
T10 construct: source: bought (commercially available, carrier-free)
T10 sequence (looked up): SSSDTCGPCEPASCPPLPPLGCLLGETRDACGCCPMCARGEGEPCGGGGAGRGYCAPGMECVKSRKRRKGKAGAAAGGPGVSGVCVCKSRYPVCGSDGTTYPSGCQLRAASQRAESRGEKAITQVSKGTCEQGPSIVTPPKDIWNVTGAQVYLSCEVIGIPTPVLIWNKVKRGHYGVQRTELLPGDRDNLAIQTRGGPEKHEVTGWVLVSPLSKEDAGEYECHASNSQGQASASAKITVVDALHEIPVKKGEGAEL
The description is as above. As to conditions: both partners purified.

The target in experiment [17] is T7, 56662. The experiment is described as above. As to conditions: both partners purified.
Experiment [18] addresses T8, Chimera A. The experiment is described as above. To be noted: both partners purified.
Experiment [19] deals with T11, IGFBP-2 (UniProt P18065 36-325).
T11 construct: source: bought (commercially available, carrier-free)
T11 sequence (looked up): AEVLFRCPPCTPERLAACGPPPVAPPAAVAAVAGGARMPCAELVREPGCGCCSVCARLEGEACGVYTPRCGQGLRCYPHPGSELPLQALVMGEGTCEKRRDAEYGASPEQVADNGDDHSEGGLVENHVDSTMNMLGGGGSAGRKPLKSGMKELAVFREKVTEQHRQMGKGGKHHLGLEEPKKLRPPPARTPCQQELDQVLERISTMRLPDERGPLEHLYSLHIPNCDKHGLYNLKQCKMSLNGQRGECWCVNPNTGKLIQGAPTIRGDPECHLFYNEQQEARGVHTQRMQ
The description is as above. To be noted: both partners purified.

T2 sequence (P09038 143-288): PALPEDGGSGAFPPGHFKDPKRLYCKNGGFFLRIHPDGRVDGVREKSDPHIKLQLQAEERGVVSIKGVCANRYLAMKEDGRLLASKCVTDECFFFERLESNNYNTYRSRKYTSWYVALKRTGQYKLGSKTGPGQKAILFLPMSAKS
T1 sequence (Q02297 20-241): as the sequence (Q02297 20-241, stated change not applied) above

B1: D3 (Fc fusion)
chain: GASSAGLGPVVRCEPCDARALAQCAPPPAVCAELVREPGCGCCLTCALSEGQPCGIYTERCGSGLRCQPSPDEARPLQALLDGRGLCVNASAVSRPAPPAPGNASESEEDRSAGSVESPSVSSTHRVSDPKFHPKGHAKVDYESQSTDTQNFSSESKRETEYGPCRREMEDTLNHLKFLNVLSPRGVHIPNCDKKGFYKKKQCRPSKGRKRGFCWCVDKYGQPLPGYTTKGKEDVHCYSMQSK
On to B1, for which, in experiment [1], the “IC50 of inhibition of NRG-stimulated proliferation, Hep3B cells” value stood at 43 nM and the “IC50 of inhibition of NRG-stimulated proliferation, MCF-7 cells” value came to 112 nM. Besides, in [2], the “IC50 of inhibition of bFGF-stimulated proliferation, HUVEC” value stood at 39 nM; the “IC50 of inhibition of bFGF-stimulated proliferation, Hep3B cells” value was 59 nM; the “IC50 of inhibition of bFGF-stimulated proliferation, MCF-7 cells” value came out at 26 nM. Further, in experiment [3], the “IC50 of inhibition of IGF1-stimulated proliferation, HUVEC” value turned out to be 7.45 nM; the “IC50 of inhibition of IGF1-stimulated proliferation, Hep3B cells” value is 21 nM; the “IC50 of inhibition of IGF1-stimulated proliferation, MCF-7 cells” value is 29 nM. The “IC50 of inhibition of PDGF BB-stimulated proliferation, 3T3 cells” value in experiment [4] amounted to 30 nM. Besides, in experiment [5], the “IC50 of inhibition of HGF-stimulated proliferation, HUVEC” value came to 56 nM and the “IC50 of inhibition of HGF-stimulated proliferation, Hep3B cells” value was 58 nM. Moreover, the Kd – broadly, the constant that tells how readily two partners part at equilibrium – in experiment [6] was found to be 2.62 nM. The Kd in experiment [7] came to 3.29 nM. For the same molecule, in [8], binding was characterised by a dissociation constant (Kd) of 5.29 nM. This molecule also gave a Kd in experiment [9] of 2.63 nM.

B2: D3 (Fc fusion)
chain: B1 chain
modifications: Secreted Fc-fusion dimer; Fc omitted. Deletions 121-126, 166-174 and 180-185 are in 56662 precursor numbering (UniProt = construct + 2). The IGFBP-2 signal peptide is removed. / Disulfide-linked …
For the molecule B2, the dissociation constant Kd in experiment [10] turned out to be 19.8 nM.

B3: D3 (Fc fusion)
chain: B1 chain
modifications: Secreted Fc-fusion dimer; Fc omitted. Deletions 121-126, 166-174 and 180-185 are in 56662 precursor numbering (UniProt = construct + 2). The IGFBP-2 signal peptide is removed.
Take B3: the equilibrium dissociation constant (Kd) in [11] turned out to be 0.51 nM; in [12], 0.22 nM.

B4: neuregulin-1 (ligand)
chain: SERKEGRGKGKGKKKERGSGKKPESAAGSQSPALPPRLKEMKSQESAAGSKLVLRCETSSEYSSLRFKWFKNGNELNRKNKPQNIKIQKKPGKSELRINKASLADSGEYMCKVISKLGNDSASANITIVESNEIITGMPASTEGAYVSSESPIRISVSTEGANTSSSTSTSTTGTSHLVKCAEKEKTFCVNGGECFMVKDLSNPSRYLCKCPNEFTGDRCQNYVMASFYKHLGIEFMEAEELYQK
modifications: R&D 377-HB, neuregulin extracellular domain, taken as NRG1-beta1 Ser2-Lys246; the paper prints only the catalogue number and 'extracellular domain'.
Regarding B4, the Kd in experiment [13] turned out to be 4.66 nM; in [14], 1.71 nM; in [15] it was 2.09 nM; in experiment [16], 1600 nM; in experiment [17], 4.46 nM; in [18], 3.21 nM.

B5: VEGF-B (ligand)
chain: PVSQPDAPGHQRKVVSWIDVYTRATCQPREVVVPLTVELMGTVAKQLVPSCVTVQRCGGCCPDDGLECVPTGQHQVRMQILMIRYPSSQLGEMSLEEHSQCECRPKKKDSAVKPDSPRPLCPRCTQHHQRPDPRTCRCRCRRRSFLRCQGRGLELNPDTCRCRKLRR
modifications: Disulfide-linked homodimer. R&D 751-VE taken as the VEGF-B167 isoform; isoform and limits are not printed.
Regarding B5, the Kd was 2.82 nM in experiment [19]; 16.1 nM in experiment [15]; 9.88 nM in experiment [16]; 14.3 nM in experiment [17]; 0.49 nM in [18].
